Assay results: paper PMC11601812, “Structural proteomics defines a sequential priming mechanism for the progesterone receptor” (Research Square, 2024)

B1: progesterone receptor isoform A (PR-A), full-length, Strep II tagged (receptor, human, UniProt P06401-2 1-769, looked up)
chain: MSRSGCKVGDSSGTAAAHKVLPRGLSPARQLLLPASESPHWSGAPVKPSPQAAAVEVEEEDGSESEESAGPLLKGKPRALGGAAAGGGAAAVPPGAAAGGVALVPKEDSRFSAPRVALVEQDAPMAPGRSPLATTVMDFIHVPILPLNHALLAARTRQLLEDESYDGGAGAASAFAPPRSSPCASSTPVAVGDFPDCAYPPDAEPKDDAYPLYSDFQPPALKIKEEEEGAEASARSPRSYLVAGANPAAFPDFPLGPPPPLPPRATPSRPGEAAVTAAPASASVSSASSSGSTLECILYKAEGAPPQQGPFAPPPCKAPGASGCLLPRDGLPSTSASAAAAGAAPALYPALGLNGLPQLGYQAAVLKEGLPQVYPPYLNYLRPDSEASQSPQYSFESLPQKICLICGDEASGCHYGVLTCGSCKVFFKRAMEGQHNYLCAGRNDCIVDKIRRKNCPACRLRKCCQAGMVLGGRKFKKFNKVRVVRALDAVALPQPVGVPNESQALSQRFTFSPGQDIQLIPPLINLLMSIEPDVIYAGHDNTKPDTSSSLLTSLNQLGERQLLSVVKWSKSLPGFRNLHIDDQITLIQYSWMSLMVFGLGWRSYKHVSGQMLYFAPDLILNEQRMKESSFYSLCLTMWQIPQEFVKLQVSQEEFLCMKVLLLLNTIPLEGLRSQTQFEEMRSSYIRELIKAIGLRQKGVVSSSQRFYQLTKLLDNLHDLVKQLHLYCLNTFIQSRALSVEFPEMMSEVIAAQLPKILAGMVKPLLFHKK
notes: Progesterone receptor isoform PR-A, human; N-terminal truncation (missing aa 1-164) of full-length PR-B; no cleavage step is described and the DSF methods call the purified proteins SII-tagged; Carries the steroid R5020 (agonist) or RU486 (antagonist) according to the assay; Monomer without DNA, dimer on PRE DNA by SEC-MALS; The reporter-assay plasmids carry hPGR NM_000926.4 and NM_001202474.3; …
B2: progesterone receptor isoform B (PR-B), full-length, Strep II tagged (receptor, human, UniProt P06401 1-933, looked up)
chain: MTELKAKGPRAPHVAGGPPSPEVGSPLLCRPAAGPFPGSQTSDTLPEVSAIPISLDGLLFPRPCQGQDPSDEKTQDQQSLSDVEGAYSRAEATRGAGGSSSSPPEKDSGLLDSVLDTLLAPSGPGQSQPSPPACEVTSSWCLFGPELPEDPPAAPATQRVLSPLMSRSGCKVGDSSGTAAAHKVLPRGLSPARQLLLPASESPHWSGAPVKPSPQAAAVEVEEEDGSESEESAGPLLKGKPRALGGAAAGGGAAAVPPGAAAGGVALVPKEDSRFSAPRVALVEQDAPMAPGRSPLATTVMDFIHVPILPLNHALLAARTRQLLEDESYDGGAGAASAFAPPRSSPCASSTPVAVGDFPDCAYPPDAEPKDDAYPLYSDFQPPALKIKEEEEGAEASARSPRSYLVAGANPAAFPDFPLGPPPPLPPRATPSRPGEAAVTAAPASASVSSASSSGSTLECILYKAEGAPPQQGPFAPPPCKAPGASGCLLPRDGLPSTSASAAAAGAAPALYPALGLNGLPQLGYQAAVLKEGLPQVYPPYLNYLRPDSEASQSPQYSFESLPQKICLICGDEASGCHYGVLTCGSCKVFFKRAMEGQHNYLCAGRNDCIVDKIRRKNCPACRLRKCCQAGMVLGGRKFKKFNKVRVVRALDAVALPQPVGVPNESQALSQRFTFSPGQDIQLIPPLINLLMSIEPDVIYAGHDNTKPDTSSSLLTSLNQLGERQLLSVVKWSKSLPGFRNLHIDDQITLIQYSWMSLMVFGLGWRSYKHVSGQMLYFAPDLILNEQRMKESSFYSLCLTMWQIPQEFVKLQVSQEEFLCMKVLLLLNTIPLEGLRSQTQFEEMRSSYIRELIKAIGLRQKGVVSSSQRFYQLTKLLDNLHDLVKQLHLYCLNTFIQSRALSVEFPEMMSEVIAAQLPKILAGMVKPLLFHKK
notes: Progesterone receptor isoform PR-B, human; full-length open reading frame (residues up to 933 are named), codon-optimised for insect cells; no cleavage step is described and the DSF methods call the purified proteins SII-tagged; Carries R5020 or RU486 according to the assay; In the functional row PR-B was expressed from a VectorBuilder plasmid in 293T cells (hRluc:P2A:hPGR), not this Sf9 protein; …
B3: steroid receptor coactivator 3 (SRC3), full-length, Strep II tagged (natural protein)
chain: not shown
notes: full-length open reading frame, codon-optimised for insect cells; NR-boxes at 685-689, 738-742 and 1057-1061; no cleavage step is described; source: Sf9 insect cells (baculovirus), purified (StrepTrap XT, SEC); not shown: Strep II, N-terminal, kept

Key:
[1] = molecular target: B3; test: HDX-MS; differential, R5020-bound PR vs PR:SRC3 and SRC3 vs PR:SRC3, with and without PRE DNA (2:1:1 PR:SRC3:PRE), sequential addition; 4 C, 20 mM Hepes, 200 mM NaCl, 1 M urea, 1 mM TCEP, 5% glycerol, pD 7.9; conditions: both partners purified
[2] = molecular target: T1, histone acetyltransferase p300, full-length, Strep II tagged (human, UniProt Q09472 1-2414); test: cross-linking; DSSO XL-MS of R5020-bound PR:SRC3:p300, with and without PRE DNA (PR:SRC3:p300:DNA 2:1:1:1.5); PR 5 uM, 3 mM DSSO, 25 C 45 min; 20 mM Hepes pH 7.5, 200 mM NaCl, 1 M urea, 1 mM TCEP, 5% glycerol; conditions: both partners purified
T1 construct: Histone acetyltransferase p300, human; full-length open reading frame, codon-optimised for insect cells; no cleavage step is described; source: Sf9 insect cells (baculovirus), purified (StrepTrap XT, SEC); not shown: Strep II, N-terminal, kept
T1 sequence (Q09472 whole entry): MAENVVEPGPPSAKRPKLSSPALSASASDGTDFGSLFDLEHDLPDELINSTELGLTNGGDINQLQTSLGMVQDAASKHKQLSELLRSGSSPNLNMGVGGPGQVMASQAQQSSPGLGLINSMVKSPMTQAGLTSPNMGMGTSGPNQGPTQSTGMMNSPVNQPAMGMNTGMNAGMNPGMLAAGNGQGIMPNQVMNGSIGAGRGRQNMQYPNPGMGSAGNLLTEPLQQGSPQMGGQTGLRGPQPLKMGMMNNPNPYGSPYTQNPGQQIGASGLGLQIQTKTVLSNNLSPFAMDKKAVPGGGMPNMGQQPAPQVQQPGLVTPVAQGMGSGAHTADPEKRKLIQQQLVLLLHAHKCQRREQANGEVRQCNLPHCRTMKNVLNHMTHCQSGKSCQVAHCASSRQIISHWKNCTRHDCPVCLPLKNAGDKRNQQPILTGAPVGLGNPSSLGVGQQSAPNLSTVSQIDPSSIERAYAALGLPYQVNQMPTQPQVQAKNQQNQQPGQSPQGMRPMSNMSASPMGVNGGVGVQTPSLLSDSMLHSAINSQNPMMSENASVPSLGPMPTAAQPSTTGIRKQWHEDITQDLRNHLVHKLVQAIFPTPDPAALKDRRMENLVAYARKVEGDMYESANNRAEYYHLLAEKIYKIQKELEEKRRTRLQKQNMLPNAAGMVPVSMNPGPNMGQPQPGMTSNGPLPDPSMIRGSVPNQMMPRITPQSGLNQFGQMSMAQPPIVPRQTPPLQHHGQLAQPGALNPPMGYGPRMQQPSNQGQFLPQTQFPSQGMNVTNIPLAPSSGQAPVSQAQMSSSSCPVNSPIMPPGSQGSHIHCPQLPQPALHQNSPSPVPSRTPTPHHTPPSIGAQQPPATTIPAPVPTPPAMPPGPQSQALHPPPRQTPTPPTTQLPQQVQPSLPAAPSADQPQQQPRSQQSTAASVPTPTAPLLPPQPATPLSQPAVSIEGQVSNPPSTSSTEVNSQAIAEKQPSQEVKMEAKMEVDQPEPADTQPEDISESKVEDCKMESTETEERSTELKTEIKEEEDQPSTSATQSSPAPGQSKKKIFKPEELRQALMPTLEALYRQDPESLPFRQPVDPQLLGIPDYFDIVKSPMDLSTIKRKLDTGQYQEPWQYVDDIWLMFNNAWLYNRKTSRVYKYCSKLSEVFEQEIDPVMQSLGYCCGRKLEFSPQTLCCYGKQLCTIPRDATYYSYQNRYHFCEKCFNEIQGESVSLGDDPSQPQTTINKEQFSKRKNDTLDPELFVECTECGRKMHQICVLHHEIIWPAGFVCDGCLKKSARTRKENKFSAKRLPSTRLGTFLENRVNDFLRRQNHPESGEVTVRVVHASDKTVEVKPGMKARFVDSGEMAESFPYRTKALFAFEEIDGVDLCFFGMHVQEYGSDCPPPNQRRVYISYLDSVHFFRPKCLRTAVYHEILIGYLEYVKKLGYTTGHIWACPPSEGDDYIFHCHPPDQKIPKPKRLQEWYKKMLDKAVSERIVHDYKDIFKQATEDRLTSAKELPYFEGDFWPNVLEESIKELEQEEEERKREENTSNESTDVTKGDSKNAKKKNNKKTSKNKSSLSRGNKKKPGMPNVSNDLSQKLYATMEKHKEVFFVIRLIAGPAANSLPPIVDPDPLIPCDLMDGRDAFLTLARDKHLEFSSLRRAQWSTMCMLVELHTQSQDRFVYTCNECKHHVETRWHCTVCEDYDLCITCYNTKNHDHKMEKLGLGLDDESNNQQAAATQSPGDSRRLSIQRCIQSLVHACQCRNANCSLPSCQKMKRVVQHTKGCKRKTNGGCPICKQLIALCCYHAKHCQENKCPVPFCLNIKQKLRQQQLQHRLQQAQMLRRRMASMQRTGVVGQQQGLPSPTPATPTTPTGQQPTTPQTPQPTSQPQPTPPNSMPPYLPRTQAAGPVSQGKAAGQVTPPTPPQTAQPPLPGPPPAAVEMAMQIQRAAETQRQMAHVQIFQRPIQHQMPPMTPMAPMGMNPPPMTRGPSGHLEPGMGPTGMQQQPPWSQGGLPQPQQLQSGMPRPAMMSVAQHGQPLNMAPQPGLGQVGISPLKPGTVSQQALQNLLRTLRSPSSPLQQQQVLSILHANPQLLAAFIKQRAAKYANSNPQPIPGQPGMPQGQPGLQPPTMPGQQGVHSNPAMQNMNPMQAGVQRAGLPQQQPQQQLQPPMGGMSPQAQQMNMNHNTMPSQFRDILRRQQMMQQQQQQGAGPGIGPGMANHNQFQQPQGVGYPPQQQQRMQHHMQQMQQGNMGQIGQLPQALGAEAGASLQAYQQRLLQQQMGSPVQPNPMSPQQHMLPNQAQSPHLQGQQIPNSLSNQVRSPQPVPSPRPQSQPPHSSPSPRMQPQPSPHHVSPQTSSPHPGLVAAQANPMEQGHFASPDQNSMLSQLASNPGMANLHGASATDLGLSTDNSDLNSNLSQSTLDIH

[3] = molecular target: the molecule itself; test: SEC-MALS; R5020-bound PR mixed with 32-mer PRE DNA; Superose 6 Increase; 20 mM Hepes, 50 mM NaCl, 5% glycerol, 1 mM TCEP, with or without 1 M urea, pH 7.5
[4] = molecular target: T1, histone acetyltransferase p300, …; test: cross-linking; DSSO XL-MS of two proteins (R5020-bound PR with SRC3, or PR-B with p300 without SRC3), with and without PRE DNA; PR 5 uM, 3 mM DSSO, 25 C 45 min; 20 mM Hepes pH 7.5, 200 mM NaCl, 1 M urea, 1 mM TCEP, 5% glycerol; conditions: both partners purified
[5] = molecular target: the molecule itself; test: SEC-MALS; each protein alone, PR bound to agonist R5020, no DNA; Superose 6 Increase; 20 mM Hepes, 50 mM NaCl, 5% glycerol, 1 mM TCEP, with or without 1 M urea, pH 7.5; about 20-100 ug injected
[6] = molecular target: B1; test: SEC-MALS; R5020-bound PR-A, SRC3 and p300 mixed with PRE DNA; Superose 6 Increase; 20 mM Hepes, 50 mM NaCl, 5% glycerol, 1 mM TCEP, with or without 1 M urea, pH 7.5; conditions: both partners purified
[7] = molecular target: T1, histone acetyltransferase p300, …; test: HDX-MS; differential, R5020-bound PR:SRC3 vs PR:SRC3:p300, with and without PRE DNA, sequential addition (DNA, PR, SRC3, p300); 4 C, 20 mM Hepes, 200 mM NaCl, 1 M urea, 1 mM TCEP, 5% glycerol, pD 7.9; conditions: both partners purified

Binder | binding result [1] | binding result [2] | stoichiometry N [3] | binding result [4] | stoichiometry N [5] | stoichiometry N [6] | binding result [7]
B1 | binds | binds | 2 | – | – | – | –
B2 | binds | – | – | binds | 2 | – | –
B3 | – | – | – | – | – | 0.5 | binds
